Test [1] deals with T1, human acid-sensing ion channel 1a, wild type (human) (UniProt P78348).
T1 sequence: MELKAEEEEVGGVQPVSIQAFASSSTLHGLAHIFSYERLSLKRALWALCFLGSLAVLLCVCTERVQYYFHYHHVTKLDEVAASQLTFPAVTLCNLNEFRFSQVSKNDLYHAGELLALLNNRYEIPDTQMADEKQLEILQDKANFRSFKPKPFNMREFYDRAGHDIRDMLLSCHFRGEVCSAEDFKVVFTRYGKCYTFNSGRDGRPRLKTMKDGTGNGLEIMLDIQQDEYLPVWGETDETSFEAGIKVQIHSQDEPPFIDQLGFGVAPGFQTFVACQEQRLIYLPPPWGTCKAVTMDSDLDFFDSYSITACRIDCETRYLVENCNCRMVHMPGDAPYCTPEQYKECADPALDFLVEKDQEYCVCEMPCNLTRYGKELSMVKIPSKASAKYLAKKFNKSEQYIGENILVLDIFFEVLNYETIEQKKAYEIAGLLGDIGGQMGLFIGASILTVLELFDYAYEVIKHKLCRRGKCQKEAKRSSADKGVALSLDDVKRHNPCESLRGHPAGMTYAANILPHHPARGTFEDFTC

The target in test [2] is T2, human ASIC1a F302A (human) (UniProt P78348).
T2 sequence: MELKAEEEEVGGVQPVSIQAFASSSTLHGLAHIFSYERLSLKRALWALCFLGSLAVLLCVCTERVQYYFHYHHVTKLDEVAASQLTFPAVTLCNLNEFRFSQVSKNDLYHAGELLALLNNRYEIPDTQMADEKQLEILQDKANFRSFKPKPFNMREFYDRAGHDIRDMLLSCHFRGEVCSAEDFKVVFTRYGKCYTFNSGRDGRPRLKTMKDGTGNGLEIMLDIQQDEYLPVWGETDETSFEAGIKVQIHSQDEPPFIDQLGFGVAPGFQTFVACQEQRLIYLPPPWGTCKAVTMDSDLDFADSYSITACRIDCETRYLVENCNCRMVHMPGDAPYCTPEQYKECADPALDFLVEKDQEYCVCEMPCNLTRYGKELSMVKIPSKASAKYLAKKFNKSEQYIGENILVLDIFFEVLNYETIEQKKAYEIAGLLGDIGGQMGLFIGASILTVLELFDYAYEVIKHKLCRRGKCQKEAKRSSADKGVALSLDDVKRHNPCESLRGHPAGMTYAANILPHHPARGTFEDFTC

Test [3] deals with T3, human ASIC1a N416C (human) (UniProt P78348).
T3 sequence: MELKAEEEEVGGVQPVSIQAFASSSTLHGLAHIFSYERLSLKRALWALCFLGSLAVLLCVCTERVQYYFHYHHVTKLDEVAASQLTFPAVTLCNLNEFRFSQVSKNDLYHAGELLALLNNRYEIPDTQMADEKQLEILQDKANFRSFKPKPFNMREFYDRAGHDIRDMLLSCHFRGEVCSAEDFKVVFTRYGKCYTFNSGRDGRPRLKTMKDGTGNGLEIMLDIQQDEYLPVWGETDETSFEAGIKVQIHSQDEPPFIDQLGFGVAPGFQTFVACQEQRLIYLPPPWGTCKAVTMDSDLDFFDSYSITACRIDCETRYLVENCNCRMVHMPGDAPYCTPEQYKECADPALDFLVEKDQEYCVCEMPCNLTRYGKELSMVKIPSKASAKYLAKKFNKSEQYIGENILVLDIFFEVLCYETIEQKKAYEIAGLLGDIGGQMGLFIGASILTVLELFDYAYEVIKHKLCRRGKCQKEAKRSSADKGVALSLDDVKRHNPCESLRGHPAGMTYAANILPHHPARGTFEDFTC

In test [4] the target is T1, human acid-sensing ion channel 1a, wild type (human). This is another data set of the same source.

Ends that are not written are not given here.

With FRRF-NH2 [FRRFa (Phe-Arg-Arg-Phe-amide)], in test [1], the EC50 of the induction of a sustained current (I (sust)/I (peak) at pH5) by FRRFa, two-electrode voltage-clamp, Xenopus oocytes was determined as 37 μM; the association rate constant kon from the time course of appearance of the sustained current fraction with 50 μM FRRFa pre-applied at pH7.4, two-electrode voltage-clamp stood at 162 s^−1 M^−1; the rate of disappearance of the sustained current after a 50-s incubation with 50 μM FRRFa (rate of unbinding), two-electrode voltage-clamp was found to be 0.025 s⁻¹. In addition, the EC50 of the FRRFa-mediated sustained current induction, two-electrode voltage-clamp in test [2] was 11 µM. In test [3], the EC50 of FRRFa for the I (sust)/I (peak) ratio increase at pH5, two-electrode voltage-clamp came to 6 μM and the koff from the time course of disappearance of the FRRFa-induced sustained current after washout of 50 μM FRRFa amounted to 0.027 s⁻¹. The molecule further showed a koff from the time course of disappearance of the FRRFa-induced sustained current, WT in the direct comparison with N416C in test [4] of 0.029.

Values taken from publication PMC6385203, “Mutations in the palm domain disrupt modulation of acid-sensing ion channel 1a currents by neuropeptides” (Scientific Reports, 2019).
